Source: the Immune Epitope Database (IEDB)
One block for each sequence: values may come before it.

How the values were obtained:
Test in all cases: IEDB peptide-MHC binding, purified MHC/direct/fluorescence; filed as Kd, often an IC50 or EC50 that approximates it; ≥ and ≤ were set here for values at or beyond the usual limits of such assays
Conditions in all cases: source organism: Homo sapiens
[1] = molecular target: HLA-B*08:01
[2] = molecular target: HLA-B*13:02
[3] = molecular target: HLA-C*01:02
[4] = molecular target: HLA-A*02:01
[5] = molecular target: HLA-C*07:01
[6] = molecular target: HLA-A*24:02

Sequence: DMKARQEAL
Kd [1]: 100 nM

Sequence: FLHEKQHEL
Kd [1]: 100 nM

Sequence: FLPWHRLFL
Kd [3]: 100 nM

Sequence: HLIDPNTLQV
Kd [4]: 10 nM

Sequence: LLMEKEDYHSL
Kd [4]: 100 nM

Sequence: RSLEYLPLRF
Kd [6]: ≥ 10000 nM

Second part, the sequence after the results:

Kd [2]: ≥ 10000 nM
Sequence: ELPKYGVKV

Kd [5]: 1000 nM
Sequence: KRPTPTFHS

Kd [4]: 100 nM
Sequence: QLPDSVNQL

Kd [6]: 1000 nM
Sequence: SYLEQASRI

Kd [1]: 100 nM
Sequence: YIHGGGWAL
